Patent USRE49294

Experiments:
[1] = target: T1, TelN protelomerase (bacteriophage N15) (UniProt Q77WP1); assay: cell_activity; conditions: SS- integrant at lambda attB, 42 C
T1 sequence: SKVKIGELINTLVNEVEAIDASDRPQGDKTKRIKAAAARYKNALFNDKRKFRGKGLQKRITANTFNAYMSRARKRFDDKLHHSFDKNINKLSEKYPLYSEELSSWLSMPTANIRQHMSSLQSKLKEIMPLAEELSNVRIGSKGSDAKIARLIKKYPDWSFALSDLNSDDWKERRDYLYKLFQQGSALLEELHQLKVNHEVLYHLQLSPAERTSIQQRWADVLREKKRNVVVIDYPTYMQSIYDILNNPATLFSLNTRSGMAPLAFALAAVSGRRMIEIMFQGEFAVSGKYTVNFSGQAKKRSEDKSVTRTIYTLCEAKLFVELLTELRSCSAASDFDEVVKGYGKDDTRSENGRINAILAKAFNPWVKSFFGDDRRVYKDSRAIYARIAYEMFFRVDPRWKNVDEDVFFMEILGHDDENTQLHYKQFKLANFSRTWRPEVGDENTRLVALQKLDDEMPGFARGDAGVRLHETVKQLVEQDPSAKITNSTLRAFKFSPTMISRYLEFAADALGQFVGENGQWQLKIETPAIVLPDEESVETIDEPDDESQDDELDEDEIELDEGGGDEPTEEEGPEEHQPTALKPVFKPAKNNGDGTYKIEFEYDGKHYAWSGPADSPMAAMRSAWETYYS

[2] = target: T2, Tel protelomerase (bacteriophage PY54) (UniProt Q8W5V1); assay: cell_activity; conditions: SS- integrant at lambda attB, 42 C; no processing of SS- plasmid
T2 sequence: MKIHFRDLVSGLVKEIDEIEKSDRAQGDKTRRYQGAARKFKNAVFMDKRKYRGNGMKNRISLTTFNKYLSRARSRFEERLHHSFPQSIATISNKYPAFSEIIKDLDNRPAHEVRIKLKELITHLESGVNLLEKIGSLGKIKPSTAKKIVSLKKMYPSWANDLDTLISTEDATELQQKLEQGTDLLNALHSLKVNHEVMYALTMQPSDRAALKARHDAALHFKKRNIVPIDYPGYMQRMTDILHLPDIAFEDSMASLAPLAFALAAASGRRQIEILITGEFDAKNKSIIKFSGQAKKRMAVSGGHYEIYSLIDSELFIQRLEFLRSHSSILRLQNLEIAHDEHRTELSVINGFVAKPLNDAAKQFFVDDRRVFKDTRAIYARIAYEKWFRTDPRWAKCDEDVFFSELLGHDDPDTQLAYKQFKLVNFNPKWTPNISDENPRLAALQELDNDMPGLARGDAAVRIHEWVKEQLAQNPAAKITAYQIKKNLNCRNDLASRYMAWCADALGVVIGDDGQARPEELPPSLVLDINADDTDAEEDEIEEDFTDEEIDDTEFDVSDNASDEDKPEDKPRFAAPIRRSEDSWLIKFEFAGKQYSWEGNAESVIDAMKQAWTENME

Q: For SS-minus plasmid (no target site), which activity (fraction viable) [1] is on record?
A: 0.6

Q: And the activity (fraction viable) [2]?
A: 1
